The DeepSol protein solubility set

Test: soluble on expression in E. coli; label from the status in PepcDB or PDB records

Soluble on expression in E. coli, not soluble:
MSLSAELLTSRDQQNFVVRATRADDVTIDVTSEAKWSVGDEKIVKLQGTTLLPAADGETKLTIEYSGFKSEVPVKVEQAGAERAVSFKQDVMPVFMRSGCNTGSCHGAARGKDGFRLSLFGFDPNGDYDRVTRELAARRINLAVPEASLLMEKAIGSVPHTGGKLFDQDSEYYSTLLRWLETGAQRDASEPPLCEKIEIYPPKAVLEGEGAKQQFIVKGFYADGTTRDITDLAVFLTSNDNSVPVGKDGMAVAANRGEAFVMARFDTHTVGSQVIVLPKDLNYEKPAIEGNYIDKLVGAKLHKLRITPSGLCTDEEYLRRVTIDITGQLPSEEEYAEFMADQSADKRVKLVDRLLERKEFAEIWAMKWAQLLMIKSENNRVSYKSAFLYNSWLQEKIANGVPLDEMVREMLGATGGTFSNPPTNFYEIERDTLKTAENVAQVFMGIRTQCAQCHNHPFDRWTMDDYYSFAAFFAQVGRKNAEDEREGHHHHHH
MDEFPPIFIISLKDSPRKNIIAERLNALGLSFNFFDAIYGKELSKKQLSEINYDFYIQKFNARKRLTLGEIGCAISHIKLYEYIVKNNINEAIILEDDAIVSIYFKDIICDALKKISCKYEILFLDHGKAKIFPFTRSLVERYRLAKYISPSKKSKRIIIRTTAYIITLNGARKLLNYAYPIRMPSDYLTGTLQLTGINAYGIEPPCVFGGPISEIDQIEDRYCLEHHHHHH

Soluble on expression in E. coli, soluble:
MQTRATPAPAAPLERFNAAPAEEAAGTLLACLHSRAWADRLVAHRPYPDLPALLAAADEAAYDLSSDDLSEALAAETLPALPEDTYAAAHTALSAAHAAYESRFGHVFVISLDGLSPEETLNHVLAAIRSRLANDPDEERLVASEELRRLAGGRVRRLLGARGTARPATDDPHPANHTKPPPPLEHHHHHH
SKNPHLPQPVRVTVGPNAPPVFGMFYPDRYMVGVDCILVDGMFVSRSRFEKLGGSLMAKWYRSIRVVDTAEPLGAWLERHNLPVFTGKARQRRQRGAPSTN
MSFLGFTLVGKKIRWTEKSLANFKHRVRQLTGRSWGVSMEYRLEKLGQYLRGWFGYYGISQYYRPIPELDEWIRRRVRMCYWKQWRWARTKIRHLLDLGIPLKAAIQHGVSSLSYWRMARTPLEHHHHHH
MKMTVVGFWGGFPEAGEATSGYLFEHDGFRLLVDCGSGVLAQLQKYITPSDIDAVVLSHYHHDHVADIGVLQYARLITSATKGQLPELPIYGHTFDENGFHSLTHEPHTKGIPYNPEETLQIGPFSISFLKTVHPVTCFAMRITAGNDIVVYSADSSYIPEFIPFTKDADLFICECNMYAHQEAAKAGHMNSTEVASIAKDANVKELLLTHLPHTGNPADLVTEAKQIFSGHITLAHSGYVWNS
MGTNLPTEVGQILSAPTSIDYNYPTTGVWDASYDICLDSTPKTTGVNQQEIMIWFNHQGSIQPVGSPVGNTTIEGKNFVVWDGSNGMNNAMAYVATEPIEVWSFDVMSFVDHTATMEPITDSWYLTSIRAGLEPWSDGVGLGVDSFSAKVN
AHHHHHHGSYRIKDEWGEFLVRLARRAIEEYLRTGREIEPPKDIPPELWEKMGVFVTLNRHNVPPQAALRGCIGFPLPIYPLVKATIKAAIYAAVDDPRFPPVKLEEMNNIVVEVSVLTPPELIEGPPEERPKKIKVGRDGLIVEKGIYTGLLLPQVAVEWGWDEEEFLAETCWKAGLPPDCWLDEDTKVYKFTAEIFEEEYPRGPVKRKPLIPQSQD
MMFDRETQVVDCRCGGGLGKGGGLAQRGTLSEAGRADVVAVAMSPGQRHITKPVCEITYGMRKENIQVSVLVLYSGSGIPESGMRTGSFVLSPVEVAQIEMHKLAVIHLGNIKDHVIRKTREILSQVDIPAIIVSQIPVDFEDFAEAGIKTRLVMPRDENIRTKGIVMDMVSGVTRGDSCPRDKLNLIVKYVKTTLDQLKDHKGVALEHHHHHH
MGIYEAIQATIKEAMKARDERTLAFARVVKAELDRKGDGKPLPDEEAVKVLKALKEIALEQGNAFEAEFLDRFLPKEMSEEELEAWIREHVDLSQFKNPLAAIGVVTKALGPKAPGEKVRKVIERLTR
